Our source for the binding result and Kd values is patent publication US20230295310A1 (ABCELLERA BIOLOGICS, published 2023).

The target of assay [1] is T1, cynomolgus monkey CD3 expressed on cyno primary T cells (cynomolgus monkey, UniProt Q95LI5 22-198; Q95LI8 22-171; Q95LI7 23-181).
T1 construct: whole, on cells; CD3 complex on purified cynomolgus monkey CD3 pan T cells; also called cyno CD3
The assay can be described thus: flow cytometry, cyno primary T cells. The method, then:
Purified antibodies were confirmed to bind CD3 expressed on cells using the CytoFLEX S or LX flow cytometers (Beckman Coulter). Antibodies were diluted to 25 nM in FACS buffer (PBS+2% FBS) and were incubated with CD3-expressing cells for 30 minutes at 4° C. […] The median fluorescence intensity of the binding signal for each antibody was normalized to the isotype control to obtain a fold over isotype value. An antibody with a fold over isotype (FOI) of ≥10 was considered to be positive for binding.

The target in assay [2] is T2, human CD3e/d (human, UniProt P07766 23-126; P04234 22-105).
T2 construct: Bought soluble protein; also called hCD3e/d; human CD3/ed (Sino CT038-H2508H)
T2 sequence (P07766 23-126, chain 1 of 2): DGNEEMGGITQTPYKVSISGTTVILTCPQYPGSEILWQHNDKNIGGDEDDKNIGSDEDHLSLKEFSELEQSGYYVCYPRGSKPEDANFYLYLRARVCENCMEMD
T2 sequence (P04234 22-105, chain 2 of 2): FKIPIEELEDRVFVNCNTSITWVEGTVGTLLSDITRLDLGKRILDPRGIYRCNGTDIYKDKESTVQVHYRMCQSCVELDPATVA
The assay can be described thus: SPR (Carterra LSA), mAb on chip. The procedure, abridged: (§1)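 Purified mAbs amine-coupled (EDC/S-NHS) at 10 μg/mL in 10 mM NaOAc pH 4.25 onto an HC-30M chip, with benchmark and negative-control mAbs; analyte flowed over the array. Double-referenced sensorgrams fitted globally to a 1:1 Langmuir model for ka, kd and KD.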

Assay [3] has as its target T3, human CD3e/g (human, UniProt P07766 23-126; P09693 23-116).
T3 construct: Bought soluble protein; also called hCD3e/g; human CD3e/g (Acro CDD-C52W4)
The experiment in a line: SPR (Carterra LSA), mAb on chip. The procedure, abridged: as §1

T1 sequence (Q95LI5 22-198, chain 1 of 3): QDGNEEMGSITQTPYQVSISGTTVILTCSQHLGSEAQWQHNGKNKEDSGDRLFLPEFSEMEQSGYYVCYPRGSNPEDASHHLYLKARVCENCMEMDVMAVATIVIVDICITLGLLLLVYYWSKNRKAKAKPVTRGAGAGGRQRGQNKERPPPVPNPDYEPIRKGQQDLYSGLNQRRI
T1 sequence (Q95LI8 22-171, chain 2 of 3): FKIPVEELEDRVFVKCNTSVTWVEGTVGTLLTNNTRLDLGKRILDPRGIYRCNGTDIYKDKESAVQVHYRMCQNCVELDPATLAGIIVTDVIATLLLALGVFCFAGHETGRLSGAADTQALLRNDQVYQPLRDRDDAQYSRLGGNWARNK
T1 sequence (Q95LI7 23-181, chain 3 of 3): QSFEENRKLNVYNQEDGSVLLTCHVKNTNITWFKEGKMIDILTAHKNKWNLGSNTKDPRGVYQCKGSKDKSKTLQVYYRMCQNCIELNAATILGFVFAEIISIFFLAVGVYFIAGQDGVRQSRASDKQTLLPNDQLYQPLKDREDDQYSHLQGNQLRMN
T3 sequence (P07766 23-126, chain 1 of 2): as the sequence (P07766 23-126, chain 1 of 2) above
T3 sequence (P09693 23-116, chain 2 of 2): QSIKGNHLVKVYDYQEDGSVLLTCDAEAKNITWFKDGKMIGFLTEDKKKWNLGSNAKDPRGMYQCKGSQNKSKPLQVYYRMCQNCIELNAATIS

B1: mAb 223 (antibody, V domains shown)
VH: QVQLVESGGGVVQPGRSLRLSCAASGFTFSGYGMHWVRQAPGKGLEWVAIIYYNGNNRKYADSVKGRFTISRDNSKNMVSLQMNSLRVEDTAIYYCTRGDGYNWFVTWGQGTLVTVSS
VL: EIVMTQSPATLSVSPGEGATLSCRASQSVSSNLAWYHQKPGQAPRLLIYGASTRATGIPVRFSGSGSGTEFTLTISSLQSDDFAVYFCQQYNNWPLTFGGGTKVEIK
notes: VH/VL only
B1: in assay [1], the binding result was “no binding (tested: FOI <10 (FOI >=10 = positive); 25 nM)”.

B2: mAb 288 (antibody, V domains shown)
VH: EVQLLESGGNLGQPGGSLRLSCAVSGFTFSSYTMSWVRQAPGKGLEWVSAISGSGGRTYYADSVKGRFTISRDNSKNTLYLQMKSLRAEDTAVYYCAKKFSYYYYYMDVWGKGTTVTVSS
VL: SYELTQPLSVSVALGQTARITCGGNNIGSKDVHWYQQKPGQAPVLVIYRDSNRPSGIPERFSGSNSGNTATLTISSAQAGDEADYYCQVWDSNTAVFGGGTQLTAL
notes: VH/VL only
As for B2, the binding result in assay [1] is on record as “no binding (tested: FOI <10 (FOI >=10 = positive); 25 nM)”.

B3: mAb 111 (antibody, V domains shown)
VH: EVQLVESGGVLVKTGGSLRLSCVASGFSFKKAWMNWVRQAPGKGLEWVGRIKRNSDGGAADYAAPVKDRFTLSRDDSKNTLYLQMNSLKTEDTAVYYCTTLDSSSWYVGYYYMDVWGKGTTVTVSS
VL: DIHMTQSPSSVSASLGDRVTFTCRASQNINNWLAWYQQKPGKAPKLLIYTASSLQSGVPSRFSGSGSGTDFTLTISSLQPDDFATYYCQQAHSLPITFGQGTRLGIK
notes: VH and VL only
In the case of B3, the values for the Kd in assay [2] and in assay [3] were 19.6 nM and 7.44 nM, respectively.

B4: mAb 127 (antibody, V domains shown)
VH: EVQLVESGGGLVKTGGSHRLSCVASGFSFKKAWMNWVRQAPGKGLEWVGRIKRNSDGGTTDYAAPVKGRFILSRDDSKNTLYLQMNSLKTEDTAVYYCTTLDSSSWYVGYYYMDVWGKGTTVTVSS
VL: DIQMTQSPSSVSASVGDRVTITCRASQDINNWLAWYQQKPGKAPKILIYTASNLQSGVPSRFSGSGSGTDFTLTISTLQPEDFATYFCQQAHGLPITFGQGTRLEIK
notes: VH and VL only
Take B4: the Kd in assay [2] was determined as 65 nM; in assay [3] it was 15.4 nM.

B5: mAb 123 (antibody, V domains shown)
VH: DVQLVESGGGTVKTGGSLRLSCVASGFSFKKAWMNWVRQAPGKGLEWVGRIKKNSDDGTADYAAPVKGRFTISRDDSKRTLFLQMNSLQTEDTAVYYCTTLDSSSWFVGYYYMDVWGKGTTVTVSS
VL: DIQMTQSPSSVSASVGDRVIITCRASQDINNWLAWYQQKPGKAPKLLIYTASSLQSGVPSRFSGSGSVSDFTLTIDSLQPEDFATYYCQQAHSLPITFGQGTRLEIK
notes: VH and VL only
Take B5: the results for the Kd in assay [2] and in assay [3] were 56.1 nM and 16.6 nM, respectively.

B6: mAb 129 (antibody, V domains shown)
VH: EVQLVESGGDLVKTGGSLRLSCVASGFSFKKAWMNWVRQAPGKGLEWVGRIKRNTDGGATDYAAPVKDRFTLSRDDSKNTLYLQMNSLKTEDTAVYYCTTLDSSSWYVGYYYMDVWGKGTTVTVSS
VL: DIHMTQSPSSVSASLGDRVTFTCRASQDINNWLAWYQQKPGKAPRLLIYTASSLQSGVPSRFSGSGSGTDFTLTISSLQPDDFATYYCQQAHSLPITFGQGTRLGIE
notes: VH and VL only
Turning to B6, the Kd in assay [2] turned out to be 26.4 nM; in assay [3] it was 6.62 nM.

B7: mAb 49 (antibody, V domains shown)
VH: EVQLVESGGGLVPPGGSLRLSCVASGFTLRSYTMNWVRQAPGQGLEWISYISSTSRTIYYSDSVKGRFTISRDNAKNSLYLQVNSLRDEDTALYYCAREDYYDSSGFDCWGQGTLVTVSS
VL: AIRMTQSPSSFSASTGDRVTITCRASQGIFNYLAWYQQKPGKAPKLLIYSTSTLQSGVPSRFSGSGSGTDFTLTIRGLQSEDLATYYCQQYYSFPRTFGQGTKVDIK
notes: VH and VL only
B7: the Kd stood at 10.8 nM in assay [2] and 3.64 nM in assay [3].

B8: mAb 95 (antibody, V domains shown)
VH: QAHLVESGGGVVQPGRSLRLSCSASGFTFSGYGMHWVRQAPGKGLEWVALIYFDGRNKYYADSVKGRFTISRDNSKNTLYLQMNSLRAEDTAVYYCARGGGYNWFDPWGQGTLVTVSS
VL: DIQMTQSPSSLSASVGDRVTITCRASQSINNYLSWYQQKPGKAPKLLIYLASNLQSGVPSRFSGSGSGTDFTLTISSLQPEDFATYYCQLSYRSPFTFGPGTKVDVK
notes: VH and VL only
As for B8, the Kd in assay [2] worked out at 1.79 nM; in assay [3], 9.22 nM.

B9: mAb 96 (antibody, V domains shown)
VH: QAHLVESGGGVVQPGRSLRLSCSASGFTFSGYGMHWVRQAPGKGLEWVSLIYFDGRNKYYADSVKGRFTISRDNSKNTLYLQMNSLRAEDTAVYYCARGGGYNWFDPWGQGTLVTVSS
VL: DIQMTQSPSSLSASVGDRVTITCRASQSINNYLSWYQQKPGKAPKLLIYLASNLQSGVPSRFSGNGSGTDFTLTISSLQPEDFATYYCQLSYRSPFTFGPGTKVDVK
notes: VH and VL only
Regarding B9, the Kd turned out to be 7.73 nM in assay [2] and 11.9 nM in assay [3].

B10: mAb 98 (antibody, V domains shown)
VH: QVHLVESGGDVVQPGRSLRLSCSASGFTFSGYGMHWVRQAPGKGLEWVALIYFDGRNKYYADSVKGRFTISRDNSKNTLYLQMNSLRAEDTAVYYCARGGGYNWFDPWGQGTLVTVSS
VL: DIQMTQSPSSLSASVGDRVTITCRASQSINNYLNWYQQKPGKAPKLLIYLASSLQSGVPSRFSGSGSGTDFTLTISSLQPEDLATYYCQLSYSSPFTFGPGTKVDVK
notes: VH and VL only
In the case of B10, the dissociation constant Kd is 9.71 nM in assay [2] and 11.2 nM in assay [3].

B11: mAb 94 (antibody, V domains shown)
VH: QVHLVESGGGVVQPGRSLRLSCSASGFTFSGYGMHWVRQAPGKGLEWVALIYFDGRNKYYADSVKGRFTISRDNSKNTLYLQMNSLRAEDTAVYYCARGGGYNWFDPWGQGTLVTVSS
VL: DIQMTQSPSSLSASVGDRVTITCRASQSISNYLNWYQQKPGKAPKLLIYLASSLQSGVPSRFSGSGSGTDFTLTINSLQPEDFASYYCQLSYSSPFTFGPGTKVDVN
notes: VH and VL only
Turning to B11, the dissociation constant (Kd) in assay [2] came out at 1.57 nM; in assay [3], 7.8 nM.

B12: mAb 106 (antibody, V domains shown)
VH: QVQLVESGGGVVQPGRSLRLSCAASGFTFRSYGMHWVRQAPGKGLEWVAIIWYNGNKKDYVDSVKGRFTISRDNSKNTLYLQMNSLRAEDTALYYCARGPGYNWFDPWGQGTLVTVSS
VL: DIQMTQSPPSLSASVGDRVTITCRASQRISSYLNWYQQKPGKAPKLLIYAASSLQSGVPSRFSGSGSGTDFTLTISSLQPEDFATYYCQQSDSFPLTFGGGTKVEII
notes: VH and VL only
Regarding B12, the results for the Kd in assay [2] and in assay [3] were 17.1 nM and 10.6 nM, respectively.

B13: mAb 207 (antibody, V domains shown)
VH: QVQLVESGGGVVQPGRSLRLSCAASGFTFSGYGMHWVRQAPGKGLEWVAIIYYNGKKEYYADSVKGRFTISRDNSRNTLFLQMNSLRAEDTAIYYCTRGEGYNWFDPWGQGTLVTVSS
VL: EIVMTQSPATLSVSPGERATLSCRASQSVSSNLAWYQQKPGQAPRLLIYGASTRATGIPARFSGSGSGTEFTLTISSLLSEDFAVYYCKQYNNWPLTFGGGTKVEIK
notes: VH/VL only
For B13, the binding result in assay [1] was “no binding (tested: FOI <10 (FOI >=10 = positive); 25 nM)”.

B14: mAb 202 (antibody, V domains shown)
VH: QVQLVESGGGVVQPGRSLRLSCAASGFTFSGYGMHWVRQAPGKGLEWVAIIYYNGKKEYYADSVKGRFTISRDNSKNTLYLQMNSLRAEDTAVYFCTRGEGYNWFDPWGQGTLVTVSS
VL: EIVMTQSPATLSVSPGERATLSCRASQSVSSNLAWYQQKPGQAPRLLIYGASTRATGIPARFSGSGSGTEFTLTISSLQSEDFAVYYCKQYKNWPLTFGGGTKVEIK
notes: VH/VL only
As to B14, in assay [1], the binding result is “no binding (tested: FOI <10 (FOI >=10 = positive); 25 nM)”.

B15: mAb 190 (antibody, V domains shown)
VH: QVQLVESGGGVVQPGRSLRLSCAASGFTFSGYGMHWVRQAPGKGLEWVAIIYYNGKKEYYADSVKGRFTISRDNSKNTLYLQMNSLRAEDTAVYYCTRGEGYNWFDPWGQGTLVTVSS
VL: EIVMTQSPATLSVSPGERATLSCRASQSVSSNLAWYQQKPGQAPRLLIYGASTRATGIPARFSGSGSGTEFTLTISSLQSEDFAVYYCKQYNNWPLTFGGGTKVEIK
notes: VH/VL only
B15: in assay [1], the binding result is “no binding (tested: FOI <10 (FOI >=10 = positive); 25 nM)”.

B16: mAb 110 (antibody, V domains shown)
VH: QVQLVESGGGVVQPGRSLRLSCAASGFTFRSYGMHWVRQAPGKGLEWVAIIWYNGNKKDYVDSVKGRFTISRDNSKNMLYLQMNSLRAEDTALYYCARGPGYNWFDPWGQGTLVTVSS
VL: DIQMTQSPPSLSASVGDRVTITCRASQRISSYLNWYQQRPGKAPKLLIYAASSLQSGVPSRFSGSGSGTDFTLTISSLQPEDFATYYCQQTDSFPLTFGGGTKVEII
notes: VH and VL only
Regarding B16, the values for the Kd in assay [2] and in assay [3] were 18.4 nM and 8.97 nM, respectively.

B17: mAb 211 (antibody, V domains shown)
VH: QVQLVESGGGVVQPGRSLRLSCAASGFTFSGYGMHWVRQAPGKGLEWVAIIYYNGKREYYADSVKGRFTISRDNSKNTLYLQMNSLRAEDTAVYYCTRGEGYNWFDPWGQGTLVTVSS
VL: EIVMTQSPATLSVSPGERATLSCRASQSVSSNLAWYQQKPGQAPRLLIYGASTRATGIPARFSGSGSGTEFTLTISSLQSEDFAVYYCKHYNNWPLTFGGGTKVEIK
notes: VH/VL only
Regarding B17, the binding result in assay [1] is recorded as “no binding (tested: FOI <10 (FOI >=10 = positive); 25 nM)”.

B18: mAb 200 (antibody, V domains shown)
VH: QVQLAESGGGVVQPGRSLRLSCAASGFTFSGYGMHWVRQAPGKGLEWVAIIYYNGKKEYYADSVKGRFTISRDNSKNTLYLQMNSLRAEDTAVYFCTRGEGYNWFDPWGQGTLVTVSS
VL: EIVMTQSPATLSVSPGERATLSCRASQSVSSNLAWYQQKPGQAPRLLIYGASTRATGIPARFSGSGSGTEFTLTISSLQSEDFAVYYCKQYKNWPLTFGGGTKVEIK
notes: VH/VL only
Consider B18, for which, in assay [1], the binding result is given as “no binding (tested: FOI <10 (FOI >=10 = positive); 25 nM)”.
